Sequences and labels used below:
B4: mouse RAG1 (aa 265-1040), catalytically inactive E962Q mutant (enzyme, UniProt P15919 265-1040, looked up)
chain: NCSKIHLSTKLLAVDFPAHFVKSISCQICEHILADPVETSCKHLFCRICILRCLKVMGSYCPSCRYPCFPTDLESPVKSFLNILNSLMVKCPAQDCNEEVSLEKYNHHVSSHKESKETLVHINKGGRPRQHLLSLTRRAQKHRLRELKIQVKEFADKEEGGDVKAVCLTLFLLALRARNEHRQADELEAIMQGRGSGLQPAVCLAIRVNTFLSCSQYHKMYRTVKAITGRQIFQPLHALRNAEKVLLPGYHPFEWQPPLKNVSSRTDVGIIDGLSGLASSVDEYPVDTIAKRFRYDSALVSALMDMEEDILEGMRSQDLDDYLNGPFTVVVKESCDGMGDVSEKHGSGPAVPEKAVRFSFTVMRITIEHGSQNVKVFEEPKPNSELCCKPLCLMLADESDHETLTAILSPLIAEREAMKSSELTLEMGGIPRTFKFIFRGTGYDEKLVREVEGLEASGSVYICTLCDTTRLEASQNLVFHSITRSHAENLQRYEVWRSNPYHESVEELRDRVKGVSAKPFIETVPSIDALHCDIGNAAEFYKIFQLEIGEVYKHPNASKEERKRWQATLDKHLRKRMNLKPIMRMNGNFARKLMTQETVDAVCELIPSEERHEALRELMDLYLKMKPVWRSSCPAKECPESLCQYSFNSQRFAELLSTKFKYRYEGKITNYFHKTLAHVPEIIERDGSIGAWASEGNQSGNKLFRRFRKMNARQSKCYEMEDVLKHHWLYTSKYLQKFMNAHNALKSSGFTMNSKETLGDPLGIEDSLESQDSMEF

The target of data set [1] is T1, WT core mouse RAG1 (aa 384-1008) (mouse, UniProt P15919 384-1008).
T1 sequence (looked up): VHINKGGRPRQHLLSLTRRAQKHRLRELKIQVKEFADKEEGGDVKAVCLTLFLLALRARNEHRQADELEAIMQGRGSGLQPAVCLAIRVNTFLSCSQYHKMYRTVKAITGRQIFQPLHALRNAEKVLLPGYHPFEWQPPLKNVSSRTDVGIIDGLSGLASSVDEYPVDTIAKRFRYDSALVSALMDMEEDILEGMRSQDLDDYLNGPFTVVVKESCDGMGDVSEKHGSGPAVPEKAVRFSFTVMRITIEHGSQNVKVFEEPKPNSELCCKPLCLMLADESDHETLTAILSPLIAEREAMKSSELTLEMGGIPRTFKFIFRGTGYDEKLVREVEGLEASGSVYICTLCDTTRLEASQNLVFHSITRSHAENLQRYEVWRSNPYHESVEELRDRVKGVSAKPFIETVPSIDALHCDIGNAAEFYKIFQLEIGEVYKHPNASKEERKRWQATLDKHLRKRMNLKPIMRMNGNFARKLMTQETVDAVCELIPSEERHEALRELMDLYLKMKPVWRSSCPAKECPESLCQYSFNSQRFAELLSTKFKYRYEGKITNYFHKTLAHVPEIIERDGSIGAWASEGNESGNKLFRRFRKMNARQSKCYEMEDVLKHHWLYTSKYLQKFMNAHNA
The data set can be described thus: crystal structure.

Data set [2] concerns the target T2, WT core mouse RAG1 (aa 384-1008) (mouse), P15919.
T2 chain: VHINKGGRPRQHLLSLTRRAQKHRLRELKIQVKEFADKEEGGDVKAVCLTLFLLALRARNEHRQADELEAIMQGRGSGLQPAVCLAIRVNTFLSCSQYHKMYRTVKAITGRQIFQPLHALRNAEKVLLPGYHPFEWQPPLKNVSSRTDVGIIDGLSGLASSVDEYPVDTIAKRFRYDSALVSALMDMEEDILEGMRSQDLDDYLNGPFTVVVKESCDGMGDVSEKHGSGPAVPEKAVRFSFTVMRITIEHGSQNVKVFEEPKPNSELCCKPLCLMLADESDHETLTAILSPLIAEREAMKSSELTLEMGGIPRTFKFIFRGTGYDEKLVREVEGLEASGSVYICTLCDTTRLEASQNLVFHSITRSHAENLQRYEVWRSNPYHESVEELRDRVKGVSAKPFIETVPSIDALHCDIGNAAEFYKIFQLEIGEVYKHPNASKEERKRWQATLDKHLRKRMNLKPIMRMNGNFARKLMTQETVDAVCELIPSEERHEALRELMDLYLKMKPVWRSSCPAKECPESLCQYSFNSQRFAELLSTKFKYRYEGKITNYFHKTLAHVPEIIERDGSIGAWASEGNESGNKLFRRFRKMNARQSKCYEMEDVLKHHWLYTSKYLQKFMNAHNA
The data set can be described thus: crystal structure. Conditions: remark: other sources report otherwise.

For data set [3], the target named is B4. The data set can be described thus: cryo-EM structure.
The data set “cryo-EM structure” deals with the molecule itself. As to the kind of experiment: cryo-EM structure.

Broadly, the stoichiometry N is a count of units in the complex or per binding partner.

B1: WT core mouse RAG2 (aa 1-359) (domain or fragment, UniProt P21784 1-359, looked up)
chain: MSLQMVTVGHNIALIQPGFSLMNFDGQVFFFGQKGWPKRSCPTGVFHFDIKQNHLKLKPAIFSKDSCYLPPLRYPATCSYKGSIDSDKHQYIIHGGKTPNNELSDKIYIMSVACKNNKKVTFRCTEKDLVGDVPEPRYGHSIDVVYSRGKSMGVLFGGRSYMPSTQRTTEKWNSVADCLPHVFLIDFEFGCATSYILPELQDGLSFHVSIARNDTVYILGGHSLASNIRPANLYRIRVDLPLGTPAVNCTVLPGGISVSSAILTQTNNDEFVIVGGYQLENQKRMVCSLVSLGDNTIEISEMETPDWTSDIKHSKIWFGSNMGNGTIFLGIPGDNKQAMSEAFYFYTLRCSEEDLSEDQ
Consider B1, for which, in data set [1], the binding result is “binds”.

B2: WT core mouse RAG1 (aa 384-1008), P15919 384-1008 (enzyme)
chain: VHINKGGRPRQHLLSLTRRAQKHRLRELKIQVKEFADKEEGGDVKAVCLTLFLLALRARNEHRQADELEAIMQGRGSGLQPAVCLAIRVNTFLSCSQYHKMYRTVKAITGRQIFQPLHALRNAEKVLLPGYHPFEWQPPLKNVSSRTDVGIIDGLSGLASSVDEYPVDTIAKRFRYDSALVSALMDMEEDILEGMRSQDLDDYLNGPFTVVVKESCDGMGDVSEKHGSGPAVPEKAVRFSFTVMRITIEHGSQNVKVFEEPKPNSELCCKPLCLMLADESDHETLTAILSPLIAEREAMKSSELTLEMGGIPRTFKFIFRGTGYDEKLVREVEGLEASGSVYICTLCDTTRLEASQNLVFHSITRSHAENLQRYEVWRSNPYHESVEELRDRVKGVSAKPFIETVPSIDALHCDIGNAAEFYKIFQLEIGEVYKHPNASKEERKRWQATLDKHLRKRMNLKPIMRMNGNFARKLMTQETVDAVCELIPSEERHEALRELMDLYLKMKPVWRSSCPAKECPESLCQYSFNSQRFAELLSTKFKYRYEGKITNYFHKTLAHVPEIIERDGSIGAWASEGNESGNKLFRRFRKMNARQSKCYEMEDVLKHHWLYTSKYLQKFMNAHNA
The molecule B2 came in with a stoichiometry N in data set [2] of 2.

B3: mouse RAG2 (aa 1-520), degradation resistant T490A mutant (natural protein, UniProt P21784 1-520, looked up)
chain: MSLQMVTVGHNIALIQPGFSLMNFDGQVFFFGQKGWPKRSCPTGVFHFDIKQNHLKLKPAIFSKDSCYLPPLRYPATCSYKGSIDSDKHQYIIHGGKTPNNELSDKIYIMSVACKNNKKVTFRCTEKDLVGDVPEPRYGHSIDVVYSRGKSMGVLFGGRSYMPSTQRTTEKWNSVADCLPHVFLIDFEFGCATSYILPELQDGLSFHVSIARNDTVYILGGHSLASNIRPANLYRIRVDLPLGTPAVNCTVLPGGISVSSAILTQTNNDEFVIVGGYQLENQKRMVCSLVSLGDNTIEISEMETPDWTSDIKHSKIWFGSNMGNGTIFLGIPGDNKQAMSEAFYFYTLRCSEEDLSEDQKIVSNSQTSTEDPGDSTPFEDSEEFCFSAEATSFDGDDEFDTYNEDDEDDESVTGYWITCCPTCDVDINTWVPFYSTELNKPAMIYCSHGDGHWVHAQCMDLEERTLIHLSEGSNKYYCNEHVQIARALQAPKRNPPLQKPPMKSLHKKGSGKVLTPAKKS
Turning to B3, the binding result in data set [3] was “binds”.

Consider B4, for which, in the data set “cryo-EM structure”, the binding result is listed as “binds”.

B5: mouse RAG1 (aa 265-1040), wild type (enzyme, UniProt P15919 265-1040, looked up)
chain: NCSKIHLSTKLLAVDFPAHFVKSISCQICEHILADPVETSCKHLFCRICILRCLKVMGSYCPSCRYPCFPTDLESPVKSFLNILNSLMVKCPAQDCNEEVSLEKYNHHVSSHKESKETLVHINKGGRPRQHLLSLTRRAQKHRLRELKIQVKEFADKEEGGDVKAVCLTLFLLALRARNEHRQADELEAIMQGRGSGLQPAVCLAIRVNTFLSCSQYHKMYRTVKAITGRQIFQPLHALRNAEKVLLPGYHPFEWQPPLKNVSSRTDVGIIDGLSGLASSVDEYPVDTIAKRFRYDSALVSALMDMEEDILEGMRSQDLDDYLNGPFTVVVKESCDGMGDVSEKHGSGPAVPEKAVRFSFTVMRITIEHGSQNVKVFEEPKPNSELCCKPLCLMLADESDHETLTAILSPLIAEREAMKSSELTLEMGGIPRTFKFIFRGTGYDEKLVREVEGLEASGSVYICTLCDTTRLEASQNLVFHSITRSHAENLQRYEVWRSNPYHESVEELRDRVKGVSAKPFIETVPSIDALHCDIGNAAEFYKIFQLEIGEVYKHPNASKEERKRWQATLDKHLRKRMNLKPIMRMNGNFARKLMTQETVDAVCELIPSEERHEALRELMDLYLKMKPVWRSSCPAKECPESLCQYSFNSQRFAELLSTKFKYRYEGKITNYFHKTLAHVPEIIERDGSIGAWASEGNESGNKLFRRFRKMNARQSKCYEMEDVLKHHWLYTSKYLQKFMNAHNALKSSGFTMNSKETLGDPLGIEDSLESQDSMEF
For the molecule B5, the binding result in “cryo-EM structure” was “binds”.
